Laboratory results published in patent publication US20200123264A1 (Regeneron, published 2020).

T1: recombinant human LEPR extracellular domain expressed with a C-terminal mouse IgG2a Fc tag (human)
T1 construct: Dimeric construct; also called hLEPR.mFc; hLEPR-mFc
T1 chain: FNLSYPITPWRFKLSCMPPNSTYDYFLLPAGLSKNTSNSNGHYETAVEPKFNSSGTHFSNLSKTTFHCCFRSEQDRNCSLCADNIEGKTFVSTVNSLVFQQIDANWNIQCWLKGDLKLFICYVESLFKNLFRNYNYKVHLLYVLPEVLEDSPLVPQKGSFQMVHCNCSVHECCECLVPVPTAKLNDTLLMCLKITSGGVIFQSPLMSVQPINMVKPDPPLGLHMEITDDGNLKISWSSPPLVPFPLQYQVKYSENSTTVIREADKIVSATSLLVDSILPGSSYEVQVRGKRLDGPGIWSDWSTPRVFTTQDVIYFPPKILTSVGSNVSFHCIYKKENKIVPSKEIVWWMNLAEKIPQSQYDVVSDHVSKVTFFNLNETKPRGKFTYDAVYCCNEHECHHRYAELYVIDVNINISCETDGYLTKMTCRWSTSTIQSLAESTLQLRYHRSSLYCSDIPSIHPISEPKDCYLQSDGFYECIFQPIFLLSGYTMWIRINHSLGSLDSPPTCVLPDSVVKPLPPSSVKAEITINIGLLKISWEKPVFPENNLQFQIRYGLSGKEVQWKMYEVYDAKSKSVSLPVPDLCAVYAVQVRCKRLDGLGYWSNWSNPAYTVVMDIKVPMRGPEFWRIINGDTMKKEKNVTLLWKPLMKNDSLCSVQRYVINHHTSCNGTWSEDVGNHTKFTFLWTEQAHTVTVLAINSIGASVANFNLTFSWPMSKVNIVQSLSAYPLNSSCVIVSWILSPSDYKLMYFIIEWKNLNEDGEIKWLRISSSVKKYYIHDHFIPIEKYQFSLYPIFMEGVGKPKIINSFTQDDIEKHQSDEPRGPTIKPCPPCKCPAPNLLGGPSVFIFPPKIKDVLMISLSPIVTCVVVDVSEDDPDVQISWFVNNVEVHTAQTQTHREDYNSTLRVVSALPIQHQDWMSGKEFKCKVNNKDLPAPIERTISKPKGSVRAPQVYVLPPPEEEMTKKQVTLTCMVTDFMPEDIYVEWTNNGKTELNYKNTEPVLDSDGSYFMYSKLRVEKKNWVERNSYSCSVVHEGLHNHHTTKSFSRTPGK


Legend:
[1] = biological target: T2, recombinant human LEPR extracellular domain expressed with a C-terminal myc-myc-hexahistidine tag (human, UniProt P48357 22-839); assay: SPR, mAb captured, 37 C
T2 construct: Monomeric construct; also called hLEPR.MMH; hLEPR-MMH
Method: (§1) Equilibrium dissociation constants (KD values) for antigen binding to purified anti-LEPR monoclonal antibodies of the invention were determined using a real-time surface plasmon resonance biosensor using a Biacore 4000 instrument. All binding studies were performed in running buffer containing 10 mM HEPES, 150 mM NaCl, 3 mM EDTA, and 0.05% v/v Surfactant Tween-20, pH 7.4 (HBS-ET running buffer) at 25° C. and 37° C. The Biacore sensor surface was first derivatized by amine coupling with a monoclonal mouse anti-human Fc antibody (GE, # BR-1008-39) to the capture anti-LEPR monoclonal antibodies. The LEPR reagents tested for binding to the anti-LEPR monoclonal antibodies included recombinant human LEPR extracellular domain expressed with a C-terminal myc-myc-hexahistidine tag (hLEPR.MMH; SEQ ID NO:90), recombinant cynomolgus monkey LEPR extracellular domain expressed with a C-terminal myc-myc-hexahistidine tag (mfLEPR.MMH; SEQ ID NO:93), recombinant mouse LEPR extracellular domain expressed with a C-terminal myc-myc-hexahistidine tag (mLEPR.MMH; SEQ ID NO:94), recombinant rat LEPR extracellular domain expressed with a C-terminal myc-myc-hexahistidine tag (rLEPR.MMH; SEQ ID NO:95), and recombinant human LEPR extracellular domain expressed with a C-terminal mouse IgG2a Fc tag (hLEPR.mFc; SEQ ID NO:91). LEPR constructs that include MMH tags are monomeric LEPR constructs, and LEPR constructs including an mFc tag are dimeric LEPR constructs. […] The dissociation of monoclonal antibody bound LEPR reagent was monitored for 10 minutes in HBS-ET running buffer. Kinetic association (10 and dissociation (10 rate constants were determined by fitting the real-time binding sensorgrams to a 1:1 binding model with mass transport limitation using Scrubber 2.0c curve-fitting software. Binding dissociation equilibrium constants (KD) and dissociative half-lives (t½) were calculated from the kinetic rate constants as: […]

[2] = biological target: T3, recombinant cynomolgus monkey LEPR extracellular domain expressed with a C-terminal myc-myc-hexahistidine tag (cynomolgus monkey, UniProt Q9MYL0 22-837 (rhesus entry)); assay: SPR, mAb captured, 37 C
T3 construct: Monomeric construct; also called mfLEPR.MMH; mfLEPR-MMH
Method: as §1

[3] = biological target: T1, recombinant human LEPR extracellular …; assay: SPR, mAb captured, 37 C
Method: as §1

[4] = biological target: T4, recombinant mouse LEPR extracellular domain expressed with a C-terminal myc-myc-hexahistidine tag (mouse, UniProt P48356 22-839); assay: SPR, mAb captured, 37 C
T4 construct: Monomeric construct; also called mLEPR.MMH; mLEPR-MMH
Method: as §1

[5] = biological target: T5, recombinant rat LEPR extracellular domain expressed with a C-terminal myc-myc-hexahistidine tag (rat, UniProt Q62959 22-839); assay: SPR, mAb captured, 37 C
T5 construct: Monomeric construct; also called rLEPR.MMH; rLEPR-MMH
Method: as §1

[6] = biological target: T6, extracellular domain portion of LEPR protein expressed with a C-terminal human Fc tag (human); assay: competition ELISA, 500 nM Ab, 10 nM hLEPR-hFc binding to coated hLeptin
T6 construct: Dimeric construct; also called hLEPR.hFc; hLEPR-hFc
Method: These antibody-protein or protein-protein complexes were then incubated for 1.5 hour at room temperature (RT). […] Samples were developed with a TMB solution (BD Biosciences, #555214; substrate A and B mixed at 1:1 ratio as per manufacturer's instructions) to produce a colorimetric reaction and then neutralized with 1M sulfuric acid before measuring absorbance at 450 nm on a Victor X5 plate reader. Data analysis was performed using a sigmoidal dose-response model within Prism™ software (Graph Pad).

T5 sequence (Q62959 other isoform, or with tags, fused parts or gaps): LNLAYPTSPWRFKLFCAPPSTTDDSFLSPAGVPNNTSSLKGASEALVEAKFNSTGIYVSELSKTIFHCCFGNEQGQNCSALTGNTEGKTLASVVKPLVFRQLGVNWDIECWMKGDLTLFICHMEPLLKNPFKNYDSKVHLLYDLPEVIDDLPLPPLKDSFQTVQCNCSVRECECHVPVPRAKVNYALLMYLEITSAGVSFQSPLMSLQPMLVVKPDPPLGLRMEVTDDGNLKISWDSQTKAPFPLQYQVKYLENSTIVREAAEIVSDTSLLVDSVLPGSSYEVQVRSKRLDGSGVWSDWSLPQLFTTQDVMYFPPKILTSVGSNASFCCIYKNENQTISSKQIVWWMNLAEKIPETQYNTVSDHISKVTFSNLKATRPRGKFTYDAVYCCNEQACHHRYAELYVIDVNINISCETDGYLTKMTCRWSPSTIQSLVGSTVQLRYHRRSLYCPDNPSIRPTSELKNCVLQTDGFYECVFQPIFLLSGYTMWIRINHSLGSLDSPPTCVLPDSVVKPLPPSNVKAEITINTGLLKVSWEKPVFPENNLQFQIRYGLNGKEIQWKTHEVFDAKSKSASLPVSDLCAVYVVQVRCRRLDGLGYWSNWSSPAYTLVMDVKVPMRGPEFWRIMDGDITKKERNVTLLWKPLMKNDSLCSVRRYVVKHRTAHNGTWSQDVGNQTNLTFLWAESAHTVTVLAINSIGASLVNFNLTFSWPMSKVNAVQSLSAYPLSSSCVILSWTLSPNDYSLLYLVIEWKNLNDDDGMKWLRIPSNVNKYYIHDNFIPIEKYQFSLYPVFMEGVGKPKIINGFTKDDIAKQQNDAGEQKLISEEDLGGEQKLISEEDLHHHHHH
T4 sequence (P48356 other isoform, or with tags, fused parts or gaps): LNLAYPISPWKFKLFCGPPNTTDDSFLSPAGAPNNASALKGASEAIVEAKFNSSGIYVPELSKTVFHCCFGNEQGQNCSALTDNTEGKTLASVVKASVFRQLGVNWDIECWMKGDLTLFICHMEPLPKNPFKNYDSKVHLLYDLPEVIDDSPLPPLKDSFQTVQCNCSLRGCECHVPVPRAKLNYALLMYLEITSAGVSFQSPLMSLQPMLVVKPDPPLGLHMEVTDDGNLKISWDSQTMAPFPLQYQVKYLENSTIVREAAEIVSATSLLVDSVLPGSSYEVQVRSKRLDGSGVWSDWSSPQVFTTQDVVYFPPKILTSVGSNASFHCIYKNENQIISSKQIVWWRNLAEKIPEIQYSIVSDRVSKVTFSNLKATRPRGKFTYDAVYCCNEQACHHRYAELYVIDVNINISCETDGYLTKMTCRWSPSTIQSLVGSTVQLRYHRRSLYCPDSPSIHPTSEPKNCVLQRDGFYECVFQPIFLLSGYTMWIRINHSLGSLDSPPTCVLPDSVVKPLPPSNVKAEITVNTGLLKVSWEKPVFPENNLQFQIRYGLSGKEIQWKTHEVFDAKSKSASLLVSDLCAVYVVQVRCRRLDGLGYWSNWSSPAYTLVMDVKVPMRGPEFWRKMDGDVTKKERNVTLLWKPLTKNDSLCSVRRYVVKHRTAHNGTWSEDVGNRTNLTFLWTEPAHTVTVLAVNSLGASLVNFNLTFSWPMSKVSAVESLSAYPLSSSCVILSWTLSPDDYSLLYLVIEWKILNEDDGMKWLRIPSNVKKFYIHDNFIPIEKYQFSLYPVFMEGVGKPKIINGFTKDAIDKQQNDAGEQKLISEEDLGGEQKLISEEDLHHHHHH

Binder	100 nM hLEPR-MMH Bound (RU) [1] [RU]	Kd [1] [nM]	koff [1] [s⁻¹]	kon [1] [M⁻¹ s⁻¹]	t½ [1] [min]	100 nM mfLEPR-MMH Bound (RU) [2] [RU]	Kd [2] [nM]	koff [2] [s⁻¹]	kon [2] [M⁻¹ s⁻¹]	t½ [2] [min]	100 nM hLEPR-mFc Bound (RU) [3] [RU]	Kd [3] [nM]	koff [3] [s⁻¹]	kon [3] [M⁻¹ s⁻¹]	t½ [3] [min]	100 nM mLEPR-MMH Bound (RU) [4] [RU]	100 nM rLEPR-MMH Bound (RU) [5] [RU]	Kd [5] [nM]	koff [5] [s⁻¹]	% blockade [6] [%]	also measured
H4H18466P2 (antibody, human IgG4, V domains shown, H4H prefix: human IgG4 Fc) VH: EVQLVESGGGLVQPGGSLRLSCTASGFTFSSYGLHWVRQAPGKGLEYVSSINHNGGSKYYADSVKGRFTISRDNSKNTLFLQMGSLKTEDMAVYYCARDLFLEWLFHGFDIWGQGTMVTVSS VL: not shown	26	148	0.00674	45500	1.7	27	164	0.0138	84300	0.8	52	8.86	0.00052	58700	22	3	6	771	0.0252	2	kon [5]: 32600 M⁻¹ s⁻¹; t½ [5]: 0.5 min
H4H18437P2 (antibody, human IgG4, V domains shown, H4H prefix: human IgG4 Fc) VH: QVQLVESGGGVVQPGRSLRLSCAASGFTFSSYGIHWVRQAPGKGLEWVAVISYDGNNKYYADSVKGRFTISRDNSKNTLYLQMNSLRAEDTAVYYCAKDLFLEWLFHGMGVWGQGTTVTVSS VL: not shown	55	77.6	0.00884	114000	1.3	58	147	0.0127	86900	0.9	88	4.3	0.000556	129000	21	6	10	629	0.0193	9	Kd [4]: 1160 nM; koff [4]: 0.0133 s⁻¹; kon [4]: 11500 M⁻¹ s⁻¹; t½ [4]: 0.9 min; kon [5]: 30700 M⁻¹ s⁻¹; t½ [5]: 0.6 min
H4H18439P2 (antibody, human IgG4, V domains shown, H4H prefix: human IgG4 Fc) VH: QLQLQESGPGLVKPSETLSLTCIVSGGDITSSSYYWNWIRQPPGKGLEWIGNIYYSGSTNYNPSLKSRVTISIDTSKSQFSLKLRSVTAADTAVYYCARLLRYFDWSKGYLDYWGQGTLVTVSS VL: not shown	19	202	0.00469	23200	2.5	14	169	0.00792	46900	1.5	67	15.1	0.000923	60900	13	-1	0			-1	
